The values that follow come from US20200024330A1.

Numbering of substitutions follows the chain as printed.

As usually defined, the EC50 is the concentration that produces a half-maximal response. Read a high EC50 as weaker potency.

Experiment [1] addresses HIV-1 APV17 envelope glycoprotein (Env) (HIV-1). Briefly: cell-based or functional assay.
Experiment [2] has as its target HIV-1 94UG103 envelope glycoprotein (Env) (HIV-1). Briefly: cell-based or functional assay.
For experiment [3], the target named is HIV-1 93UG077 envelope glycoprotein (Env) (HIV-1). Briefly: cell-based or functional assay.
Experiment [4] addresses HIV-1 APV13 envelope glycoprotein (Env) (HIV-1). Briefly: cell-based or functional assay.
Experiment [5] has as its target HIV-1 MGRM-C-028 envelope glycoprotein (Env) (HIV-1). Briefly: cell-based or functional assay.
Experiment [6] has as its target HIV-1 92RW020 envelope glycoprotein (Env) (HIV-1). Briefly: cell-based or functional assay.
The target of experiment [7] is HIV-1 Env of isolate 93IN905 (HIV-1). Briefly: cell-based or functional assay.
The target in experiment [8] is HIV-1 JRCSF envelope glycoprotein (Env) (HIV-1) (UniProt P20871). Briefly: cell-based or functional assay.
Experiment [9] has as its target HIV-1 APV6 envelope glycoprotein (Env) (HIV-1). Nature of the experiment: cell-based or functional assay.
Experiment [10] has as its target HIV-1 JRFL envelope glycoprotein (Env) (HIV-1). Nature of the experiment: cell-based or functional assay.
Experiment [11] addresses HIV-1 MGRM-C-026 envelope glycoprotein (Env) (HIV-1). Briefly: cell-based or functional assay.
The target of experiment [12] is HIV-1 MGRM-A-010 envelope glycoprotein (Env) (HIV-1). Briefly: cell-based or functional assay.
The target of experiment [13] is JR-FL gp120 ΔV3 (HIV-1 (isolate JR-FL)). Nature of the experiment: ELISA on coated gp120; EC50 by nonlinear regression. In general terms: An ELISA detects its analyte on a solid surface through an enzyme-linked reagent.
Experiment [14] has as its target HIV-1 Env of isolate MGRM-A-006 (HIV-1). Briefly: cell-based or functional assay.
Experiment [15] deals with HIV-1 Env of isolate 92UG031 (HIV-1). Nature of the experiment: cell-based or functional assay.
Experiment [16] has as its target HIV-1 Env of isolate VLGCA1 (HIV-1). Briefly: cell-based or functional assay.
Experiment [17] deals with HIV-1 Env of isolate MGRM-A-003 (HIV-1). Briefly: cell-based or functional assay.
Experiment [18] concerns the target HIV-1 Env of isolate MGRM-A-005 (HIV-1). Briefly: cell-based or functional assay.
Experiment [19] addresses HIV-1 Env of isolate MGRM-AE-002 (HIV-1). Briefly: cell-based or functional assay.
The target of experiment [20] is HIV-1 Env of isolate 92WR021 (HIV-1). Nature of the experiment: cell-based or functional assay.
Experiment [21] deals with HIV-1 Env of isolate MGRM-A-010 (HIV-1). Nature of the experiment: cell-based or functional assay.
Experiment [22] addresses HIV-1 Env of isolate 94KE105 (HIV-1). Nature of the experiment: cell-based or functional assay.
Experiment [23] concerns the target HIV-1 Env of isolate MGRM-A-007 (HIV-1). Nature of the experiment: cell-based or functional assay.
Experiment [24] deals with HIV-1 Env of isolate MGRM-A-001 (HIV-1). Briefly: cell-based or functional assay.
In experiment [25] the target is HIV-1 Env of isolate 92WR009 (HIV-1). Briefly: cell-based or functional assay.
The target in experiment [26] is Env of the clade AE HIV-1 pseudoviruses of the cross-clade 162-pseudovirus panel (n = 10). Briefly: cell-based or functional assay.
Experiment [27] addresses HIV-1 Env of isolate MGRM-A-011 (HIV-1). Nature of the experiment: cell-based or functional assay.
In experiment [28] the target is HIV-1 Env of isolate 92UG037 (HIV-1). Nature of the experiment: cell-based or functional assay.
In experiment [29] the target is HIV-1 Env of isolate 92WR026 (HIV-1). Briefly: cell-based or functional assay.
Experiment [30] concerns the target HIV-1 Env of isolate 93WR029 (HIV-1). Nature of the experiment: cell-based or functional assay.
The target in experiment [31] is HIV-1 Env of isolate 92WR024 (HIV-1). Briefly: cell-based or functional assay.
Experiment [32] concerns the target HIV-1 Env of isolate MGRM-A-013 (HIV-1). Nature of the experiment: cell-based or functional assay.
For experiment [33], the target named is HIV-1 Env of isolate 92WR020 (HIV-1). Nature of the experiment: cell-based or functional assay.
The target of experiment [34] is HIV-1 Env of isolate MGRM-A-014 (HIV-1). Nature of the experiment: cell-based or functional assay.
Experiment [35] concerns the target HIV-1 Env of isolate 94UG103 (HIV-1). Nature of the experiment: cell-based or functional assay.
The target in experiment [36] is HIV-1 Env of isolate 92RW008 (HIV-1). Briefly: cell-based or functional assay.
In experiment [37] the target is HIV-1 Env of isolate MGRM-A-002 (HIV-1). Nature of the experiment: cell-based or functional assay.
Experiment [38] has as its target HIV-1 Env of isolate CMU02 (HIV-1). Nature of the experiment: cell-based or functional assay.
For experiment [39], the target named is HIV-1 Env of isolate MGRM-AE-003 (HIV-1). Briefly: cell-based or functional assay.

B1: PGT-135 (antibody, V domains shown)
VH: QLQMQESGPGLVKPSETLSLSCTVSGDSIRGGEWGDKDYHWGWVRHSAGKGLEWIGSIHWRGTTHYKESLRRRVSMSIDTSRNWFSLRLASVTAADTAVYFCARHRHHDVFMLVPIAGWFDVWGPGVQVTVSS
VL: EIVMTQSPDTLSVSPGETVTLSCRASQNINKNLAWYQYKPGQSPRLVIFETYSKIAAFPARFVASGSGTEFTLTINNMQSEDVAVYYCQQYEEWPRTFGQGTKVDIK
In the case of B1, the IC50 neutralization in experiment [1] is > 10 µg/mL; in experiment [2], > 10 µg/mL; in experiment [3], > 10 µg/mL; in experiment [4], 0.545 µg/mL; in experiment [5], 2.16 µg/mL; in experiment [6], 0.157 µg/mL. Besides, the IC50 neutralization was 0.113 µg/mL in experiment [8]; > 10 µg/mL in [9]; > 10 µg/mL in [10]; 0.0123 µg/mL in [11]; > 10 µg/mL in experiment [12]. For the same molecule, in experiment [7], the Primary Neutralization Index (B cell culture well 5343 B8) was 43. The same molecule returned a Primary Neutralization Index (B cell culture well 5344 E16) in [7] of 2.3. In experiment [13], this molecule gave an EC50 of 0.2 µg/mL.

B2: PGT-126 (antibody, V domains shown)
VH: QPQLQESGPGLVEASETLSLTCTVSGDSTAACDYFWGWVRQPPGKGLEWIGGLSHCAGYYNTGWTYHNPSLKSRLTISLDTPKNQVFLKLNSVTAADTAIYYCARFDGEVLVYHDWPKPAWVDLWGRGTLVTVSS
VL: QSALTQPPSASGSPGQSISISCTGTSNRFVSWYQQHPGKAPKLVIYGVNKRPSGVPDRFSGSKSGNTASLTVSGLQTDDEAVYYCSSLVGNWDVIFGGGTKLTVL
For B2, the IC50 (µg/mL), pseudovirus neutralization in [14], in [15], in experiment [16], in experiment [17], in experiment [18] and in [19] was > 50 µg/mL in each case. In addition, the IC50 (µg/mL), pseudovirus neutralization in [20] is 0.006 µg/mL; in experiment [21], 0.002 µg/mL; in experiment [22], 0.006 µg/mL; in [23], > 50 µg/mL; in experiment [24], > 50 µg/mL; in [25], > 50 µg/mL. Moreover, the IC50 (µg/mL), pseudovirus neutralization in experiment [27] is > 50 µg/mL; in experiment [28], 0.011 µg/mL; in [29] it was 0.008 µg/mL; in experiment [30], > 50 µg/mL; in [31] it was 42 µg/mL; in experiment [32], 0.006 µg/mL. The IC50 (µg/mL), pseudovirus neutralization was 0.006 µg/mL in [33]; 0.01 µg/mL in experiment [34]; 0.008 µg/mL in [35]; 0.008 µg/mL in experiment [36]; 0.015 µg/mL in [37]; > 50 µg/mL in experiment [38]. Besides, the IC50 (µg/mL), pseudovirus neutralization in experiment [39] is > 50 µg/mL. Moreover, the IC50 neutralization in experiment [1] was found to be 0.501 µg/mL; in experiment [2], 0.0091 µg/mL; in experiment [3], 0.0256 µg/mL; in experiment [4], 0.012 µg/mL; in [5], 0.283 µg/mL; in experiment [6], 0.0046 µg/mL. Besides, the IC50 neutralization in experiment [8] was found to be 0.0061 µg/mL; in experiment [9] it was 0.0249 µg/mL; in experiment [10], 0.014 µg/mL; in [11], 0.0076 µg/mL; in experiment [12], 0.0033 µg/mL. In experiment [26], this molecule returned a Median IC50 against viruses neutralized with an IC50 <50 µg/ml of 1.77 µg/mL.

B3: PGT-128 (antibody, V domains shown)
VH: QPQLQESGPTLVEASETLSLTCAVSGDSTAACNSFWGWVRQPPGKGLEWVGSLSHCASYWNRGWTYHNPSLKSRLTLALDTPKNLVFLKLNSVTAADTATYYCARFGGEVLRYTDWPKPAWVDLWGRGTLVTVSS
VL: B2 VL with S19T, R28N, P37A, G47D, S86G
Regarding B3, the Median IC50 against viruses neutralized with an IC50 <50 µg/ml in [26] stood at 0.05 µg/mL. This molecule also displayed an EC50 in experiment [13] of 7.8 µg/mL.
